Blank lines part the entries; values can stand above or below the binder they belong to.
Key:
[1] = molecular target: T1, Ded1-His6 (S. cerevisiae, UniProt P06634 1-604); assay: cell-based or functional assay
[2] = molecular target: T2, GST-NAB2-HIS6 (S. cerevisiae, UniProt P32505 1-525); assay: pull-down; 7-methyl-GTP Sepharose beads loaded with 5 μg purified eIF4E or Cbp20, 5 μg of the purified proteins added with 50 U RNase I, 90 min on ice, TpB buffer (20 mM HEPES pH 7.9, 100 mM KCl, 2 mM MgCl2, 2 mM DTT), eluted with 1 mM 7-methyl-GTP; Coomassie-stained SDS PAGE; details: both partners purified
T2 construct: source: E. coli, purified on nickel-agarose
T2 sequence (looked up): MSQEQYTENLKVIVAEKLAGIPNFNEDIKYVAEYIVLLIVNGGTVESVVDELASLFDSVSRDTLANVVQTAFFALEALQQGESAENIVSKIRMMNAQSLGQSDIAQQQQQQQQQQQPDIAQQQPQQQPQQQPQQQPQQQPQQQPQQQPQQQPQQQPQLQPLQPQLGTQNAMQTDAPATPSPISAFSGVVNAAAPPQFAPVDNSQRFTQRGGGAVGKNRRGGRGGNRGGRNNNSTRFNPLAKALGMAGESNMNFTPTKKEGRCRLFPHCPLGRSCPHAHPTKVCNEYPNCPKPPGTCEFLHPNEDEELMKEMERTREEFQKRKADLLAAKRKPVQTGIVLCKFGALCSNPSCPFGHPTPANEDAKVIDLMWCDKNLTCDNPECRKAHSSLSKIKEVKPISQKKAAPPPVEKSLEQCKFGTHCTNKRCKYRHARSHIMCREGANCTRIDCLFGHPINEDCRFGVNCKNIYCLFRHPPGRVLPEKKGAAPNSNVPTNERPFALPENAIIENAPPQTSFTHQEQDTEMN

[3] = molecular target: T1, Ded1-His6; assay: pull-down; Ded1 bound to protein A Sepharose beads crosslinked to IgG against Ded1, incubated with single purified proteins, washed, eluted; Coomassie-stained SDS PAGE, western blot for Pab1 and Cbp80; same results with or without RNase I or AMP-PNP; details: both partners purified

T1 sequence (P06634 whole entry): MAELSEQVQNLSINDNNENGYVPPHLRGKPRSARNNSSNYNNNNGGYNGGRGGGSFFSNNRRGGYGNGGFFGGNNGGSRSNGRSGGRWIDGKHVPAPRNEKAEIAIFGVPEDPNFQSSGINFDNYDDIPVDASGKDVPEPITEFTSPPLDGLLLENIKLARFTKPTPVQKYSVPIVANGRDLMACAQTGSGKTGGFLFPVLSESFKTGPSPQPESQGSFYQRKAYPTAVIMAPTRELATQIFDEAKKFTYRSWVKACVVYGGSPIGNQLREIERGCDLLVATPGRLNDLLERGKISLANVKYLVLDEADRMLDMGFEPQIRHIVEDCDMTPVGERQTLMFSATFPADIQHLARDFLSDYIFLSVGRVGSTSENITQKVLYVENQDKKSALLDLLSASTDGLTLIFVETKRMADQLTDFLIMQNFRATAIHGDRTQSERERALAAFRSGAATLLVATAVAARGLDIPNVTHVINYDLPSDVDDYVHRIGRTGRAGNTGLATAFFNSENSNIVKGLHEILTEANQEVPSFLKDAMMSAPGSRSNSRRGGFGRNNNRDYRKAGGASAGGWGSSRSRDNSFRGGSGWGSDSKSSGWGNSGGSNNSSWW

RNA-dependent ATPase activity, % Ded1 [1]: 97%
binding result [2]: binds
B1: His6-Cbp20 (natural protein, S. cerevisiae, UniProt Q08920 1-208, looked up)
chain: MSLEEFDEVKYDHSTKRLDTPSRYLLRKARRNPNGLQELRESMKSSTIYVGNLSFYTSEEQIYELFSKCGTIKRIIMGLDRFKFTPCGFCFIIYSCPDEALNALKYLSDTKLDEKTITIDLDPGFEDGRQFGRGKSGGQVSDELRFDFDASRGGFAIPFAERVGVPHSRFDNSSSQSNTNNYIPPPDAMGTFRPGFDEEREDDNYVPQ
notes: Cbp20 of S. cerevisiae subcloned from pRSETC20 into the NdeI-BamHI sites of pET19b; Printed name His6-Cbp20; also called Cpb20; source: E. coli (pET19b), purified on nickel-agarose

binding result [3]: binds
B2: eIF4G-His6 fragment 387–952 (domain or fragment, S. cerevisiae, UniProt P39935 387-952, looked up)
chain: AGTKIGLEAEIETTTDETDDGTNTVSHILNVLKDATPIEDVFSFNYPEGIEGPDIKYKKEHVKYTYGPTFLLQFKDKLNVKADAEWVQSTASKIVIPPGMGRGNRSRDSGRFGNNSSRGHDFRNTSVRNMDDRANSRTSSKRRSKRMNDDRRSNRSYTSRRDRERGSYRNEEKREDDKPKEEVAPLVPSANRWVPKFKSKKTEKKLAPDGKTELLDKDEVERKMKSLLNKLTLEMFDAISSEILAIANISVWETNGETLKAVIEQIFLKACDEPHWSSMYAQLCGKVVKELNPDITDETNEGKTGPKLVLHYLVARCHAEFDKGWTDKLPTNEDGTPLEPEMMSEEYYAAASAKRRGLGLVRFIGFLYRLNLLTGKMMFECFRRLMKDLTDSPSEETLESVVELLNTVGEQFETDSFRTGQATLEGSQLLDSLFGILDNIIQTAKISSRIKFKLIDIKELRHDKNWNSDKKDNGPKTIQQIHEEEERQRQLKNNSRSNSRRTNNSSNRHSFRRDAPPASKDSFITTRTYSQRNSQRAPPPKEEPAAPTSTATNMFSALMGESDDEE
notes: Not among the constructs of the methods
